Source: patent US20210069295A1, “GALECTINS CONTROL MTOR IN RESPONSE TO ENDOMEMBRANE DAMAGE AND PROVIDE A MECHANISM AND TARGET FOR THE TREATMENT OF AUTOPHAGY-RELATED DISEASES” (STC. UNM, priority 2017, published 2021)

Experiments:
TAK1 = target: T1, TAK1 (Homo sapiens, UniProt O43318); assay: Co-IP of FLAG-tagged galectins with GFP-tagged TAK1 in HEK293T cells; format: binding; conditions: HEK293T overexpressing FLAG-tagged galectins and GFP-TAK1
T1 sequence (O43318 1-606): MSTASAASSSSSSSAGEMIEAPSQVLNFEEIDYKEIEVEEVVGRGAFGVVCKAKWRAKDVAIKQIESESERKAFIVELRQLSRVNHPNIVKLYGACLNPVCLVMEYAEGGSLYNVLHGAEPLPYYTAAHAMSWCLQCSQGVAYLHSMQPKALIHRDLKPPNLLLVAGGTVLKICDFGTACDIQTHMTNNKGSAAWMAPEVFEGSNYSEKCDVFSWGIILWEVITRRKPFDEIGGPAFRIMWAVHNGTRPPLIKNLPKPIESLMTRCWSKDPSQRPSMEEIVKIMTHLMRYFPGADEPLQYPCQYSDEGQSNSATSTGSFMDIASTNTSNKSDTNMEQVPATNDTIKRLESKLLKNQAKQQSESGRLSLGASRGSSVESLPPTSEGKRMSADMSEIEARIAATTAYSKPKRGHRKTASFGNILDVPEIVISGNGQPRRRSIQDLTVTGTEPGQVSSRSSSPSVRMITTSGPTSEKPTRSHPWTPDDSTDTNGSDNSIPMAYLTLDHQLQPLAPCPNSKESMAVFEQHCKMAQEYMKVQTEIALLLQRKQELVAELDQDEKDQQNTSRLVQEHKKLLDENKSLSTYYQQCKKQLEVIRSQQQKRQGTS
Method: (A) Analysis of the activation of AMPK in wildtype (WT) and the complementation of Gal9 in Gal9-knockout (Gal9KO) HEK293A cells treated with 100 μM GPN in full medium for 1 h. AMPK activity was monitored by immunoblotting analysis of AMPKα (T172) and acetyl-CoA carboxylase (ACC, S79) phosphorylation (phosphorylated AMPKα (T172) and ACC (S79) relative to total AMPKα and ACC respectively). (B) HEK293T cells transfected with scrambled siRNA (Scr) or Gal9 siRNA (Gal9KD) were treated with 2 mM LLOMe in full medium for 1 h, and the cell lysates were analyzed for phosphorylation of indicated proteins. Data, means±SEM, n=3, *p<0.05, ANOVA. (C) HEK293T cells overexpressing FLAG-Gal9 were treated with 2 mM LLOMe in full medium for 1 h. Cell lysates were analyzed for the indicated proteins. Data, means±SEM, n=3, *p<0.05, ANOVA. (D) Immunoprecipitation analysis of the interactions between galectins and TAK1. HEK293T cells overexpressing FLAG-tagged galectins and GFP-tagged TAK1 were subjected to anti-FLAG immunoprecipitation followed by immunoblotting for GFP-tagged TAK1. (E) Schematic diagram of Gal9 domains and deletion constructs. (F) HEK293T cells overexpressing FLAG-tagged full-length or truncated Gal9 and GFPAMPK were subjected to anti-FLAG immunoprecipitation, followed by immunoblotting for GFP-AMPK. (G) HEK293T cells overexpressing FLAG-tagged full-length or truncated Gal9 and GFP-TAK1 were subjected to anti-FLAG immunoprecipitation, followed by immunoblotting for GFP-TAK1. (H) Analysis of the activation of AMPK in HEK293T cells subjected to knockdowns as indicated treated with 100 μM GPN in full medium for 1 h. AMPK activity was monitored by immunoblotting analysis of AMPKα (T172) and acetyl-CoA carboxylase (ACC, S79) phosphorylation (phosphorylated AMPKα (T172) and ACC (S79) relative to total AMPKα and ACC respectively). Cells transfected with scrambled siRNA were as control (Scr). […]

AMPKα = assay: Co-IP of FLAG-tagged galectins with endogenous AMPKα in HEK293T cells; format: binding; conditions: HEK293T overexpressing FLAG-tagged galectins

Substance	interaction with TAK1 (TAK1)	AMPKα in complexes (co-IP) with galectin (AMPKα)
Gal8: protein of the galectin family encoded by the gene LGALS8; beta-galactoside-binding lectin	not	not detected
Gal9: beta-galactoside-binding lectin protein of the galectin family	interacted	found in co-IPs
